In US20230287094A1 (LUDWIG INSTITUTE FOR CANCER RESEARCH, published 2023):
Residue numbers refer to the chain shown, from its start. Blank lines part the entries; values can stand above or below the binder they belong to.

Columns and labels:
human TGF-β3 = target: T1, human TGF-β3 (human, UniProt P10600 301-412); assay: cell-based or functional assay
T1 sequence: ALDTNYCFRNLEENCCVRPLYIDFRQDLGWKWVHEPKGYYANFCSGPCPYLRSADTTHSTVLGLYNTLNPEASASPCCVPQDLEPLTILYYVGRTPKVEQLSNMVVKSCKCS

human TGF-β1 = human TGF-β1 (human, UniProt P01137 279-390); assay: cell-based or functional assay
human TGF-β2 [1] = target: T2, human TGF-β2 (human, UniProt P61812 303-414); assay: assay not named
T2 construct: also called TGF-ß2
T2 sequence (looked up): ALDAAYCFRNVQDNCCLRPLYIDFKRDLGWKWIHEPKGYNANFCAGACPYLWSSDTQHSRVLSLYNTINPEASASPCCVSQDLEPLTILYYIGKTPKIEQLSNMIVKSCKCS
Description: Mink lung epithelial cell line (TMLECs) were stably transfected with a truncated PAI-1 promoter fused to the firefly luciferase reporter gene. 500 pg/ml human TGF-ß3 was incubated with serial dilutions of isolated TGF-β3 antibody for 4 h at 37° C. before transfer to an equal volume of culture medium (DMEM + 10 % FCS) where 50,000 TMLEC cells had been seeded 1 - 4 h earlier. After a further 24 h incubation, luciferase activity was measured with the BRITELITE kit from Perkin-Elmer and luminescence was measured in a TOPCOUNT NXT from Perkin Elmer.
Antibody ranging from 10 to 0 µg/ml were incubated with 500 pg/ml of the different TGF-β isoforms and TMLEC cells for 24 hours.

human TGF-β2 [2] = target: T2, human TGF-β2; assay: cell-based or functional assay

Sequence of human TGF-β1 (P01137 279-390 limits assumed): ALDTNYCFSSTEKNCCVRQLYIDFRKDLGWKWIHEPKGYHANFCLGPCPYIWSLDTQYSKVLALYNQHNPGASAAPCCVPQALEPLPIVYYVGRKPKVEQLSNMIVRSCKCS

IC 50 (ng/ml), TMLEC PAI-1 promoter luciferase assay (human TGF-β3): 54 ng/mL
B1: MTGF-β3-1203/11 (antibody, IgG2b, V domains shown)
VH: QVQLKQSGAELVKPGASVKISCKASGYTFTDYYINWVKQRPGQGLEWIGKIGPGTGRTYYNEKFKGKATLTADKSSSTAYMQLSSLTSEDSAVYFCAIYYGWGYAMDYWGQGTSVTVSS
VL: DIVMTQSPSSLSVSAGEKVTMSCKSSQSLLNSGNQKNYLAWYQQKSGQPPKLLIYGASTRESGVPDRFTGSGSGTDFTLTISSVQAEDLAVYYCQNDHGFPLTFGAGTKLELK

IC 50 (ng/ml), TMLEC PAI-1 promoter luciferase assay (human TGF-β1): 263 ng/mL
IC 50 (ng/ml), TMLEC PAI-1 promoter luciferase assay (human TGF-β3): 79 ng/mL
binding result (human TGF-β2 [1]): binds
B2: MTGF-β3-1719/13 (antibody, IgG2a, V domains shown)
VH: QVQLQQPGAELVKPGASVKMSCKASGYIFTSYWITWVKQRPGQGLEWIGDIFPGTGSTNYNEKFKTKASLTVDTSSSTANMQLSSLTSEDSAVYSCARKLGPNYAVDYWGQGTSVTVSS
VL: DVVMTQTPLSLPVSLGDQASISCRSSQSLIHSHGNTYLHWYLQKPGQSPKLLIYKLSNRFSGVPDRFSGSGSGTDFTLKISRVEAEDLGVYFCSQSTHVPFTFGSGTKLEIK
notes: also called TGF-ß3-17

IC 50 (ng/ml), TMLEC PAI-1 promoter luciferase assay (human TGF-β2 [2]): 53.7 ng/mL
IC 50 (ng/ml), TMLEC PAI-1 promoter luciferase assay (human TGF-β1): 72 ng/mL
IC 50 (ng/ml), TMLEC PAI-1 promoter luciferase assay (human TGF-β3): 6.5 ng/mL
B3: 1D11 mouse monoclonal anti-TGF-ß antibody (antibody, from another filing, V domains shown)
VH: QVQLQQSGPELVRPGASVKLSCKASGYIFITYWMNWVKQRPGQGLEWIGQIFPASGSTNYNEMFEGKATLTVDTSSSTAYMQLSSLTSEDSAVYYCARGDGNYALDAMDYWGQGTSVTVSS
VL: DIVLTQSPASLAVSLGQRATISCRASESVDSYGNSFMHWYQQKSGQPPKLLIYLASNLESGVPARFSGSGSRTDFTLTIDPVEADDAATYYCQQNNEDPLTFGAGTKLEIK

IC 50 (ng/ml), TMLEC PAI-1 promoter luciferase assay (human TGF-β3): 25 ng/mL
B4: MTGF-β3-1901/16 (antibody, IgG1, V domains shown)
VH: QVLLQQSGPELVKPGASVKISCKASGYAFSSSWIHWVKQRPGKGLEWIGRIYPGDGDTNYTGKFKGKATLTADKSSSTAYMQLSSLTSEDSAVYFCARRMITTQAAMDYWGQGTSVTVSS
VL: SFVMTQTPKFLLVSAGDRVTITCKASQSVINAVAWYQQKPGQSPKLLIYYASNRYTGVPDRFTGNGYGTDFTFTISTVQAEDLAVYFCQQDYSSPYTFGGGTKLEIK

IC 50 (ng/ml), TMLEC PAI-1 promoter luciferase assay (human TGF-β3): 6 ng/mL
B5: MTGF-β3-1679/2 (antibody, IgG2a, V domains shown)
VH: B4 VH
VL: B4 VL

IC 50 (ng/ml), TMLEC PAI-1 promoter luciferase assay (human TGF-β3): 13 ng/mL
B6: MTGF-β3-9/8 (antibody, IgG2a, V domains shown)
VH: B4 VH with I34M, Y52F, N59I, T61N, K63N
VL: B4 VL with F2I, A32D
